# According to the supplement of paper PMC9170038:
# System: K4 kissing-loop RNA reporter
# Assay: apparent KD of K4 kissing-loop reporter; higher = weaker reporter binding
# Conditions: Eterna round: R107; input ligand: theophylline 20 uM
# Experimental: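 RNA-MaP round R107: designed RNA switches with theophylline, tryptophan, arginine or FMN aptamers are transcribed on-chip within common flanks. They are titrated with a labelled K4 kissing-loop RNA reporter in RNA-MaP buffer (100 mM Tris pH 7.5, 80 mM KCl, 4 mM MgCl2), without ligand or with the indicated ligand. Median apparent KD per design.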
# 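Also: bound reporter read as fluorescence of individual clusters on recovered sequencing chips by microscopy, with normalized cluster intensities fitted with a binding model.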
row,Sequence,apparent KD of K4 kissing-loop reporter
1,UGAUACCAGACUGAUACCAGCGAGUGAUGUUUGCUGAUCUAAAGCAGUCAAAGACUGCCUUGCCCUUGGCAGCAGUCUGGUAUCU [TheoBX 26 #SwitchBubble #StaticStem],351 nM
2,AGAACUGUCUUGGAUACCAGUGAUGUUGGUAUCGAUGUGUGAGUGCAAAGCGUCCCACAUUGCCCUUGGCAGCUAAGACUGUUCA [Omei KL Theo B Exc A v3],179 nM
3,UGCAUGCGUAGAGUGAUGUUCUAAGAUGAUACCAGUGCGGAAACGCACCCUUGGCAGCAUCUGACUGCAUGCACGUCGAAAGACG,399 nM
4,AGUGAUGUGGGAAGGAGCGCUAGUACACUUCAGUGAUGUUGAAGUGAUGAAUUAGUGUAUUGGCAGGUAGGUCGCCUAGAUGUUA [KL-XARG-B14],65.4 nM
5,UUGUUUGGUUGAGAGGUUGGGCGAAAUGAUACCAGUAUAUAAGAAUACCCUUGGCAGCAUAAGAAAGAUAUAGUGAUGUUGUAUA [SSTheophA.L],560 nM
6,GUUAUAUAAAUAAGAAAUAAAAUAAGGGAAGGAGCGCCGAGAAAGGCAGGUAGGUCGCCCAGUGAUGUUGGGAUUAAUUAAUUAG,43.9 nM
7,UGUAUGUGAUUUGAUACCAGACCAGGUGGAGGAAUCUGAGUGAUGUUCAGGUAGGUUUGGGUCCCUUGGCAGCAAAUCGCAUACU [KL-SSTheoB18],176 nM
8,UGAUACCAGACGGCCGCCACUUCUGCAAGUCAAAGACUUGCUAAAGGAAUCGUCCAGUGAUGUUGGAGGACCGGGUCUGGUAUCU [FiskerMod 1 - Jieux - Exclusion - Tryptophan B],638 nM
9,AAGGUUCGUGGAAGGAGCGCCCGUGCGACUCGUUCAGUAAGUGAAGUCCGAGUGAUGUUCGGGCAGGUAGGUCGCCACGGGCAAA [Usontezaon],123 nM
10,UUUAUAAUGUCGGCCGCCACUGGAUUAAUAUUUGUAUAAUCUAGUUCUAAGUGAUGUUUAGAGUCCAGGACCGGGACAUUUGUUA [#09 K4 Tryptophan B Exclusion],311 nM
11,GCUAUGGUUGGAAGGAGCGUUGAAUUGUUAGUAAGAGUGAUGUUCGAUAGUGGACAGUUGUAGCAGGUAGGUCGCCAACUAUAGC [KL-Arg B28],560 nM
12,AACCACUCGUUACAUCACUAUCGAGUGGAACGAGGACCGGUACGGCCGCCACUCGAUUAGAUGCAGUGAUGUUGCAUCUUAGAAU [KL-SSTryp-A (BrourdMod)3 #dotplot2 strengthened],176 nM
13,AAACGCUGGUGAAUAACACUAGCGAAUUCGCGAGGACCGGUACGGCCGCCACUCGCUAACUGCGAGUGAUGUUCGAUAAUAAAAU [Mat - Mod of OpenEnded 3 - D2],189 nM
14,CUGAUGCUGAUGCGGUGGCCGGUGGUCGUGCGAGGACCGGUACGGCCGCCACUCGCAUGAGUGAUGUUCAUGUGUCGUCGUCGUC [#04 K4 Tryptophan A Exclusion],164 nM
15,AGUGGACGUGUCCGGAGUGAUGUUCCGGAUACCAGACACGAAAGUGUCCCUUGGCAGCCGGAGUAAAGUUCCGGCGUUCACUAAA [#26 K4 Theophylline A Exclusion],67.2 nM
16,AGAGUUAUAUGAGGAUAUGAGAUAGUUAAUGAGUGAGUUAUAGUGUAGUUUGGUUAGUGAUGUUAUUUAGAAGGCGUGAGUGAUG [reefmullin],100 nM
17,AAAUCGUUCAGAAGGAGCGUGGUAUAAUCAUUAAUAUUUAUUACGAGUGAUGUUCGUAAUUCACAGGUAGGUCGCUGAUCGAUAA [JR_SSArginiB_Sub006],99.8 nM
18,GGUGUUGUUUGUGCCGCCUUCCUCGUUCCUCGAGGACCGGUACGGCCGCCACUCGAGUGAUGUUUGGGUAGCGAUCCCUGUUAGU [Bdazzled - #11 Exc. Tryptophan A],638 nM
19,AUCUAUGAGCGAGGAUAUGCAUGACGCGAGUGAUGUUCGCGAUGUGGGCGUGAUUAGUAAUAUGAAGCAGAAGGCGCACUCAUGA [Exclusion - FMW B / A],116 nM

# Same assay, conditions: Eterna round: R107; input ligand: tryptophan 2.4 mM
row,Sequence,apparent KD of K4 kissing-loop reporter
1,UGAUAGGACAGAAGGAGCGGAGCUGGUCAAAGACCAGCAAUACGUUAAAUAGGAGUGAUGUUCCAGGUAGGUCGCUGUCCUAUCU [ArgBX 28 #SwitchBubble #StaticStem],87.9 nM
2,UGUCAUUGGUCGGCCGCCACUUCAUAAAGAGUGAUGUUCUGAAAGACGGAUCGAAAGAUCUGUCGAAGGACCGGGACCGAUGACU [FiskerMod 1 - Jieux - Same State - Tryptophan B],236 nM
3,CUCGUGGGUUUGAGAGGGCUUGUGGGAAGAUAGGAUAUCUAGGGAGGGAGAAGGAUCUAUAGAAUAUAGUGAUGUUAUAUAUGGG [#05 K4 FMN A Same State],122 nM
4,UUAGUUGAAAGUGAUACCAGACAAGUUAAGAGAAGAAAUUAAGUUGGAGUGAUGUUCCAAGUCCCUUGGCAGCACAUUGUAAUUU [Same State Theophylline B GF12],126 nM
5,AGGUCCGAGCCCGCAAGGGCUCGGACCUGUUAGGAUAUGACGUUAUUCAGAAGGGAUGGGUGGAGUGAUGUUCCACCCGCGAGGG [#2 Same State - FMN A Attempt #12 (HarryS)],149 nM
6,GGUUUAUAGGAGGAUACCAGUACAAAUAAAGUACAUUAAUAGUAGAGUGAUGUUCUAAAGUACCCUUGGCAGCUUAGAUUAAGUU [ExTheophylB.G],76.4 nM
7,GGGCGUGGCGCGGCCGCCACUGGGCCUGGGCGCUCGCUGAGUGAUGUUCGUCGGCGGUUGGGUCGUAGGACCGGGUGCUGGUUGG [BDazzled - #8 SS Tryptophan B],253 nM
8,UGAUACCAGACUGAUACCAGCGAGUGAUGUUUGCUGAUCUAAAGCAGUCAAAGACUGCCUUGCCCUUGGCAGCAGUCUGGUAUCU [TheoBX 26 #SwitchBubble #StaticStem],264 nM
9,AGAACUGUCUUGGAUACCAGUGAUGUUGGUAUCGAUGUGUGAGUGCAAAGCGUCCCACAUUGCCCUUGGCAGCUAAGACUGUUCA [Omei KL Theo B Exc A v3],144 nM
10,UGCAUGCGUAGAGUGAUGUUCUAAGAUGAUACCAGUGCGGAAACGCACCCUUGGCAGCAUCUGACUGCAUGCACGUCGAAAGACG,598 nM
11,AGUGAUGUGGGAAGGAGCGCUAGUACACUUCAGUGAUGUUGAAGUGAUGAAUUAGUGUAUUGGCAGGUAGGUCGCCUAGAUGUUA [KL-XARG-B14],72.5 nM
12,UUGUUUGGUUGAGAGGUUGGGCGAAAUGAUACCAGUAUAUAAGAAUACCCUUGGCAGCAUAAGAAAGAUAUAGUGAUGUUGUAUA [SSTheophA.L],411 nM
13,GUUAUAUAAAUAAGAAAUAAAAUAAGGGAAGGAGCGCCGAGAAAGGCAGGUAGGUCGCCCAGUGAUGUUGGGAUUAAUUAAUUAG,37.1 nM
14,UGUAUGUGAUUUGAUACCAGACCAGGUGGAGGAAUCUGAGUGAUGUUCAGGUAGGUUUGGGUCCCUUGGCAGCAAAUCGCAUACU [KL-SSTheoB18],158 nM
15,UGAUACCAGACGGCCGCCACUUCUGCAAGUCAAAGACUUGCUAAAGGAAUCGUCCAGUGAUGUUGGAGGACCGGGUCUGGUAUCU [FiskerMod 1 - Jieux - Exclusion - Tryptophan B],772 nM
16,AAGGUUCGUGGAAGGAGCGCCCGUGCGACUCGUUCAGUAAGUGAAGUCCGAGUGAUGUUCGGGCAGGUAGGUCGCCACGGGCAAA [Usontezaon],157 nM
17,UUUAUAAUGUCGGCCGCCACUGGAUUAAUAUUUGUAUAAUCUAGUUCUAAGUGAUGUUUAGAGUCCAGGACCGGGACAUUUGUUA [#09 K4 Tryptophan B Exclusion],212 nM
18,GCUAUGGUUGGAAGGAGCGUUGAAUUGUUAGUAAGAGUGAUGUUCGAUAGUGGACAGUUGUAGCAGGUAGGUCGCCAACUAUAGC [KL-Arg B28],520 nM
19,AACCACUCGUUACAUCACUAUCGAGUGGAACGAGGACCGGUACGGCCGCCACUCGAUUAGAUGCAGUGAUGUUGCAUCUUAGAAU [KL-SSTryp-A (BrourdMod)3 #dotplot2 strengthened],133 nM
20,AAACGCUGGUGAAUAACACUAGCGAAUUCGCGAGGACCGGUACGGCCGCCACUCGCUAACUGCGAGUGAUGUUCGAUAAUAAAAU [Mat - Mod of OpenEnded 3 - D2],142 nM
21,CUGAUGCUGAUGCGGUGGCCGGUGGUCGUGCGAGGACCGGUACGGCCGCCACUCGCAUGAGUGAUGUUCAUGUGUCGUCGUCGUC [#04 K4 Tryptophan A Exclusion],172 nM
22,AGUGGACGUGUCCGGAGUGAUGUUCCGGAUACCAGACACGAAAGUGUCCCUUGGCAGCCGGAGUAAAGUUCCGGCGUUCACUAAA [#26 K4 Theophylline A Exclusion],105 nM
23,AGAGUUAUAUGAGGAUAUGAGAUAGUUAAUGAGUGAGUUAUAGUGUAGUUUGGUUAGUGAUGUUAUUUAGAAGGCGUGAGUGAUG [reefmullin],83.1 nM
24,AAAUCGUUCAGAAGGAGCGUGGUAUAAUCAUUAAUAUUUAUUACGAGUGAUGUUCGUAAUUCACAGGUAGGUCGCUGAUCGAUAA [JR_SSArginiB_Sub006],82.7 nM
25,GGUGUUGUUUGUGCCGCCUUCCUCGUUCCUCGAGGACCGGUACGGCCGCCACUCGAGUGAUGUUUGGGUAGCGAUCCCUGUUAGU [Bdazzled - #11 Exc. Tryptophan A],778 nM
26,AUCUAUGAGCGAGGAUAUGCAUGACGCGAGUGAUGUUCGCGAUGUGGGCGUGAUUAGUAAUAUGAAGCAGAAGGCGCACUCAUGA [Exclusion - FMW B / A],129 nM
